Laboratory results published in paper PMC12699829, “Development of a glutamine-responsive MRI contrast agent” (Chemical Science, 2025).
Where a chain is given by its changes, count along the chain named. Names and notes keep the numbering of the source.

B1: [Gd(DOTA-mal^N)]72: swArM: Gd(DOTA-mal^N) metallocofactor covalently attached at Cys72 of T72C E. coli glutamine-binding protein (GlnBP) (conjugate, UniProt P0AEQ3 23-248, looked up, variant T72C)
Glutamine-binding periplasmic …: ADKKLVVATDTAFVPFEFKQGDKYVGFDVDLWAAIAKELKLDYELKPMDFSGIIPALQTKNVDLALAGITICDERKKAIDFSDGYYKSGLLVMVKANNNDVKSVKDLDGKVVAVKSGTGSVDYAKANIKTKDLRQFPNIDNAYMELGTNRADAVLHDTPNILYFIKTAGNGQFKAVGDSLEAQQYGIAFPKGSDELRDKVNGALKTLRENGTYNEIYKKWFGTEPK
modifications: Gd(DOTA-malN) at Cys72
B2: [Dy(DOTA-malN)]72-A126D: swArM: Dy(DOTA-mal^N) on T72C/A126D double variant of GlnBP (conjugate, UniProt P0AEQ3 23-248, looked up, variant T72C A126D)
Glutamine-binding periplasmic …: B1 Glutamine-binding periplasmic … with A126D
modifications: Dy(DOTA-malN) at Cys72
notes: swArM: Dy(DOTA-mal^N) on T72C/A126D double variant of GlnBP
B3: [Dy(DOTA-mal^N)]72-A126Y: swArM: Dy(DOTA-mal^N) on T72C/A126Y double variant of GlnBP (conjugate, UniProt P0AEQ3 23-248, looked up, variant T72C A126Y)
Glutamine-binding periplasmic …: B1 Glutamine-binding periplasmic … with A126Y
modifications: Dy(DOTA-malN) at Cys72
notes: swArM: Dy(DOTA-mal^N) on T72C/A126Y double variant of GlnBP
B4: [Dy(DOTA-mal^N)]72: swArM: Dy(DOTA-mal^N) attached at Cys72 of T72C-GlnBP (conjugate, UniProt P0AEQ3 23-248, looked up, variant T72C)
Glutamine-binding periplasmic …: B1 Glutamine-binding periplasmic …
modifications: Dy(DOTA-malN) at Cys72
notes: swArM: Dy(DOTA-mal^N) attached at Cys72 of T72C-GlnBP
B5: [Gd(DTPA-malN)]72: swArM: Gd complex of maleimide-functionalized DTPA attached at Cys72 of T72C-GlnBP (conjugate, UniProt P0AEQ3 23-248, looked up, variant T72C)
Glutamine-binding periplasmic …: B1 Glutamine-binding periplasmic …
modifications: Gd(DTPA-mal) at Cys72
notes: swArM: Gd complex of maleimide-functionalized DTPA attached at Cys72 of T72C-GlnBP

Columns and labels:
Type in all cases: physicochemical
[1] = T1 and T2 relaxivity measurements at 9.4 T (400 MHz NMR); settings: for Holo/Apo % r1 Change / Holo/Apo % r2 Change: 37 °C; for r1 (Holo) / r2 (Holo) / r1 (Apo) / r2 (Apo): PBS buffer pH 7.4, 37 °C; for r1 (Holo) / r2 (Holo): with Gln; for r1 (Apo) / r2 (Apo): without Gln
Procedure: The effectiveness of a contrast agent depends on its “relaxivity”, which is measured in units of mM^−1 s^−1, and quantifies how much a given concentration of the contrast agent improves water relaxation rates. T1 and T2 relaxivities are denoted r1 and r2, respectively, and are calculated according to eqn (1):1 [drawing 1] Here, Ti and Ti^0 are the relaxation times in the presence and absence of the contrast agent, respectively, and [C] is the concentration of the contrast agent. […] The relaxivity of a contrast agent depends not only on the properties of the molecule but also on the strength of the magnetic field used for the measurement. Whereas early MRI instruments were relatively weak (<1 T), the modern clinical standard has risen to 1–3 T, wth an increasing number of even more powerful instruments (>3 T) in recent years. Thus, we performed relaxivity experiments at both the most clinically relevant field strengths 1.4 T and at the more cutting-edge field strength of 9.4 T.
10% D 2O (assay buffer). S tock solutions of swArM in assay buffer was prepared at1.11, 0.83, 0.56, and 0.28 mM. Apo- and holo-swArM samples were prepared from the same stock by adding either 20 μL assay buffer or 20 μL 0. 1 M Gln in assay buffer, to 180 μL of protein solution, respectively. Final protein concentrations were verified using the molar extinction coefficient ε28 0 = 25.9 mM -1 cm -1.
B. NM R M easu r ements . Relaxivities of all variants were determined at 37 °C from spectra taken at 9.4 T (400 mHz) using a Varian Inova 400 -MHz NMR spectrometer equipped with a Nalorac, 5 mm, DR probe. Select variants were also investigated at 32°C at 1.4 T (60 mHz) using a Nanalysis NMReady60 Pro instrument. Measurements were typically performed on 4 diffe rent concentrations of contrast agent and on the same buffer with no contrast agent. Temperature- dependent relaxivity measurements were performed using a Varian Inova 500-MHz NMR spectrometer, equipped with a Vari an, 5-mm, TR PFG probe with inverse proton detection. Temperature- dependent relaxivity was determined using either two concen trations of contrast agent ( 0. 5 and 1. 0 mM ) or t hree (0. 3, 0. 6, and 0.9 mM) . The temperature was calibrated using the 1H NMR signal of ethylene glycol.20 T1 measurements were performed using the inversion recovery method21 and T2 measurements were performed using the Carr–Purcell–Meiboom –G ill (CPMG) p ulse […]
Six or more pulse delay times (τ) were chosen to ensure coverage of the Ti under observation, and the delay between pulse sequences was set to at least 5-times T1.
Optimized 90° and 180° pulse widths were determined on the day of the experiment, and typically spanned 16‒2 0 μs (90° pulse width) and 32‒4 0 μs (180° pulse width). The delay in the CPMG pulse sequence was set to at least 50 times the 180° pulse width to allow at least four echo loops .
C. A n al ysi s . To determine Ti, data were analyzed via MestReNova software. For each spectrum, an integration was performed over the water peak, and the values obtained (dependent variable) were plotted against τ (independent variable). […]
then fit to a monoexponential decay according to Eq. 1. From these analyses, we obtain Ti for each sample concentration and type.
The quantity described by Eq. 2, where Ti at zero added sample is T0, was then plotted against the swArM concentration and a linear regression model was applied. The slope of this line gives the contrast agent relaxivity ri.

[2] = T1 and T2 relaxivity measurements at 1.4 T (60 MHz NMR); settings: for Holo/Apo % r1 Change / Holo/Apo % r2 Change: 32 °C; for r1 (Holo) / r2 (Holo) / r1 (Apo) / r2 (Apo): PBS buffer pH 7.4, 32 °C; for r1 (Holo) / r2 (Holo): with Gln; for r1 (Apo) / r2 (Apo): without Gln
[3] = Stability of swArM samples prepared in PBS buffer for relaxivity studies
Source text: Next, we set out to investigate alternative ligands to coordinate Ln^3+ ions. As shown in Chart 1, we investigated two DOTA derivatives (DOTA-mal^N and DOTA-mal^C) as well as an acyclic version of DOTA, diethylene triamine pentaacetic acid (DTPA), and a six-coordinate version of the eight-coordinate DOTA ligand, nonane triacetic acid (NOTA). […] This ligand has previously been tested with Gd^3+ as an MRI contrast agent in PBS buffer, with no reported stability issues.[40] The fact that conjugation to our protein decreased the kinetic stability of Gd(NOTA) exemplifies the impact of the specific protein environment.

[4] = free contrast agent control, PBS pH 7.4, 37 °C
[5] = listed as [Dy(DOTA-mal^N)]72-GlnBP

| Molecule | Holo/Apo % r1 Change [1] | Holo/Apo % r2 Change [1] [%] | r1 (Holo) [1] [mM⁻¹ s⁻¹] | r2 (Holo) [1] [mM⁻¹ s⁻¹] | r1 (Apo) [1] [mM⁻¹ s⁻¹] | r2 (Apo) [1] [mM⁻¹ s⁻¹] | Holo/Apo % r1 Change [2] [%] | Holo/Apo % r2 Change [2] [%] | r1 (Holo) [2] [mM⁻¹ s⁻¹] | r2 (Holo) [2] [mM⁻¹ s⁻¹] | r1 (Apo) [2] [mM⁻¹ s⁻¹] | r2 (Apo) [2] [mM⁻¹ s⁻¹] | also measured |
| --- | --- | --- | --- | --- | --- | --- | --- | --- | --- | --- | --- | --- | --- |
| O=C([O-])CN1CCN(CC(=O)[O-])CCN(CC(=O)[O-])CCN(CC(=O)[O-])CC1.[Gd+3] [Gd(DOTA), reference compound] |  |  |  |  |  |  |  |  |  |  |  |  | +Gln/−Gln % r1 Change ([1]; free contrast agent control): 0 ± 3%; +Gln/−Gln % r2 Change ([1]; free contrast agent control): 1 ± 6%; r1 (+Gln) [1, 4]: 2.80 ± 0.07 mM⁻¹ s⁻¹; r1 (−Gln) [1, 4]: 2.82 ± 0.04 mM⁻¹ s⁻¹; r2 (+Gln) [1, 4]: 3.6 ± 0.2 mM⁻¹ s⁻¹; r2 (−Gln) [1, 4]: 3.5 ± 0.1 mM⁻¹ s⁻¹ |
| B1 | –1 ± 2% | 20 ± 5 | 4.32 ± 0.07 | 43.2 ± 0.8 | 4.35 ± 0.07 | 36 ± 1 | 4 ± 2 | 11 ± 2 | 20.4 ± 0.3 | 41.5 ± 0.4 | 19.5 ± 0.4 | 37.2 ± 0.7 | r1 (Holo) ([1]; listed as [Gd(DOTA-malN)]72): 4.32 mM⁻¹ s⁻¹; r1 (Apo) ([1]; listed as [Gd(DOTA-malN)]72): 4.35 mM⁻¹ s⁻¹; r1 (Holo) ([2]; listed as [Gd(DOTA-malN)]72): 20.4 mM⁻¹ s⁻¹; r1 (Apo) ([2]; listed as [Gd(DOTA-malN)]72): 19.5 mM⁻¹ s⁻¹ |
| B2 |  | 23 ± 5 |  | 11.7 ± 0.09 |  | 9.5 ± 0.3 |  |  |  |  |  |  |  |
| B3 |  | 58 ± 6 |  | 10.8 ± 0.2 |  | 6.8 ± 0.2 |  |  |  |  |  |  |  |
| B4 | –1 ± 5% | 36 ± 3 | 0.37 ± 0.02 |  | 0.37 ± 0.01 | 6.83 ± 0.04 | 4 ± 5 | 40 ± 20 | 0.201 |  | 0.176 |  | r2 (Holo) [1, 5]: 9.3 ± 0.1 mM⁻¹ s⁻¹; r1 (Apo) ([1]; listed as [Dy(DOTA-malN)]72): 0.37 mM⁻¹ s⁻¹; r2 (Apo) [1, 5]: 6.86 ± 0.08 mM⁻¹ s⁻¹; r1 value ([1]; apo/holo not specified): below the practical detection limit |
| B5 | 3 ± 3% | 10 ± 10 | 4.14 ± 0.05 | 72 ± 4 | 4.0 ± 0.1 | 65 ± 4 | 7 ± 4 | 11 ± 6 | 17.8 | 30.3 ± 0.9 | 16.7 | 27 ± 1 | stability of the swArM in PBS buffer (metal loss, precipitate) [3]: did not observe loss of metal to solution over time |
